Measured values from paper PMC8262862 (2021).

Key:
Experiment in all cases: ELISA
H1 HA = molecular target: H1 HA
H7 HA = molecular target: H7 HA
H8 HA = molecular target: H8 HA
H2 HA = molecular target: H2 HA
H14 HA = molecular target: H14 HA
H5 HA = molecular target: H5 HA
H3 HA = molecular target: H3 HA
H13 HA = molecular target: H13 HA
B-Phuket HA = molecular target: B-Phuket HA
H4 HA = molecular target: H4 HA
H9 HA = molecular target: H9 HA
H10 HA = molecular target: H10 HA
H6 HA = molecular target: H6 HA

B1: S1V2-51 IgG (antibody, V domains shown)
VH: QVQLVESGGGVVQPGRSLRLSCVASGFTFRDSVMHWVRQAPGKGLEWVAVTSFDGGESYSADSVKGRFTISRDNSKSTLSLQMNILRPEDTGVYYCARDRGGLDVWGQGTTVTVSG
VL: DIVMTQSPESLAVSLGERATINCKSSQSVSFGSSDKNYLGWYQQKPGQPPKLLINWASTRESGVSDRFRGTGSGTDFTLTISSLQAEDAAVYYCHQYYTPPYSFGQGTKLEIK
Kd (H1 HA): > 100000 pM | Kd (H7 HA): 210 pM | Kd (H8 HA): 410 pM | Kd (H2 HA): > 100000 pM | Kd (H14 HA): > 100000 pM | Kd (H5 HA): > 100000 pM | Kd (H3 HA): 260 pM | Kd (H13 HA): > 100000 pM | Kd (B-Phuket HA): > 100000 pM | Kd (H4 HA): 210 pM | Kd (H9 HA): 210 pM | Kd (H10 HA): 420 pM | Kd (H6 HA): 84000 pM
